US20090214427

Key:
[1] = biological target: T1, synthetic peptide HK2p01 (SRFKVWWAAG)
T1 chain: SRFKVWWAAG

[2] = biological target: T2, synthetic peptide HK2p02 (AARRPFPAPS)
T2 chain: AARRPFPAPS

[3] = biological target: T3, synthetic peptide HK2p03 (PARRPFPVTA)
T3 chain: PARRPFPVTA

Measured: enzyme activity (chromogenic substrate)

B1: human trypsin 3 (protein)
chain: IVGGYTCEENSLPYQVSLNSGSHFCGGSLISEQWVVSAAHCYKTRIQVRLGEHNIKVLEGNEQFINAAKIIRHPKYNRDTLDNDIMLIKLSSPAVINARVSTISLPTTPPAAGTECLISGWGNTLSFGADYPDELKCLDAPVLTQAECKASYPGKITNSMFCVGFLEGGKDSCQRDSGGPVVCNGQLQGVVSWGHGCAWKNRPGVYTKVYNYVDWIKDTIAANS
showed no inhibition: [1] | [2] | [3]

B2: human plasmin (protein)
chain: KVYLSECKTGNGKNYRGTMSKTKNGITCQKWSSTSPHRPRFSPATHPSEGLEENYCRNPDNDPQGPWCYTTDPEKRYDYCDILECEEECMHCSGENYDGKISKTMSGLECQAWDSQSPHAHGYIPSKFPNKNLKKNYCRNPDRELRPWCFTTDPNKRWELCDIPRCTTPPPSSGPTYQCLKGTGENYRGNVAVTVSGHTCQHWSAQTPHTHNRTPENFPCKNLDENYCRNPDGKRAPWCHTTNSQVRWEYCKIPSCDSSPVSTEQLAPTAPPELTPVVQDCYHGDGQSYRGTSSTTTTGKKCQSWSSMTPHRHQKTPENYPNAGLTMNYCRNPDADKGPWCFTTDPSVRWEYCNLKKCSGTEASVVAPPPVVLLPDVETPSEEDCMFGNGKGYRGKRATTVTGTPCQDWAAQEPHRHSIFTPETNPRAGLEKNYCRNPDGDVGGPWCYTTNPRKLYDYCDVPQCAAPSFDCGKPQVEPKKCPGRVVGGCVAHPHSWPWQVSLRTRFGMHFCGGTLISPEWVLTAAHCLEKSPRPSSYKVILGAHQEVNLEPHVQEIEVSRLFLEPTRKDIALLKLSSPAVITDKVIPACLPSPNYVVADRTECFITGWGETQGTFGAGLLKEAQLPVIENKVCNRYEFLNGRVQSTELCAGHLAGGTDSCQGDSGGPLVCFEKDKYILQGVTSWGLGCARPNKPGVYVRVSRFVTWIEGVMRNN
showed no inhibition: [1] | [2] | [3]

B3: human trypsin 2 (protein)
chain: IVGGYICEENSVPYQVSLNSGYHFCGGSLISEQWVVSAGHCYKSRIQVRLGEHNIEVLEGNEQFINAAKIIRHPKYNSRTLDNDILLIKLSSPAVINSRVSAISLPTAPPAAGTESLISGWGNTLSSGADYPDELQCLDAPVLSQAECEASYPGKITNNMFCVGFLEGGKDSCQGDSGGPVVSNGELQGIVSWGYGCAQKNRPGVYTKVYNYVDWIKDTIAANS
showed no inhibition: [1] | [2] | [3]
